From patent EP4725965A1 (Sunshine Guojian Pharmaceutical (Shanghai) Co., Ltd., dated 2026)
Positions count from the first letter of the chain named. Like-named read-outs stand apart in the source and are kept apart here. Values belong to the molecule of their own block, whether it stands above or below them.

Assays:
[1] = biological target: human BDCA2 on cells (293FT-BDCA2 stable transfectant) (human) (UniProt Q8WTT0); assay: flow cytometry (FACS) on 293FT-BDCA2 cells
human BDCA2-Fc protein = biological target: T1, human BDCA2-Fc protein (human, UniProt Q8WTT0 45-213); assay: ELISA, BDCA2-Fc coated at 1 ug/mL
T1 sequence: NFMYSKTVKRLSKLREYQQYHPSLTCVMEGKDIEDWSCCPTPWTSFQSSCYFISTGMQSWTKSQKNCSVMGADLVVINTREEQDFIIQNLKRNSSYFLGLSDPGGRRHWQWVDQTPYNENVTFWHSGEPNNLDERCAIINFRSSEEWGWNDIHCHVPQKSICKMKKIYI

[2] = biological target: human BDCA2 on cells (293FT-BDCA2 stable transfectant) (human) (UniProt Q8WTT0); assay: flow cytometry (FACS) on 293FT-BDCA2 cells; remark: listed apart in the source
human BDCA2-his protein [3] = biological target: T2, human BDCA2-his protein (human, UniProt Q8WTT0 45-213); assay: SPR, Biacore 8K, antibody captured on Protein A chip, BDCA2-his as analyte
T2 construct: also called BDCA2-his antigen protein
T2 sequence: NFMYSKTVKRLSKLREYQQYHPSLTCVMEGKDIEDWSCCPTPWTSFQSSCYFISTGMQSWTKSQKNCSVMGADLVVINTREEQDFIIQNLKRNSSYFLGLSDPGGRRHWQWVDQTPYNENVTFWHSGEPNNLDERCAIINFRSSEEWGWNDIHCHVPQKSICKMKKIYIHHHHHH

[4] = biological target: T3, human BDCA2 on cells (293FT-BDCA2 stable transfectant) (human, UniProt Q8WTT0 1-213); assay: flow cytometry (FACS) on 293FT-BDCA2 cells
T3 construct: whole, on cells; Also used here as the target for the PBMC assays, where native BDCA2 stands on pDCs; also called CLEC4C
T3 sequence (looked up): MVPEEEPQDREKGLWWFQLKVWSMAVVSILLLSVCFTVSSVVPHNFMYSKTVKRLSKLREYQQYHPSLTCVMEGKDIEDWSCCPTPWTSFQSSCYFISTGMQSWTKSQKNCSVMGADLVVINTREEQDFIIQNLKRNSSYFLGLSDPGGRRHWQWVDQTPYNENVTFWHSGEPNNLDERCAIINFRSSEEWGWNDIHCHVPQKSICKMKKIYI

human BDCA2-his protein [5] = biological target: T2, human BDCA2-his protein; assay: ELISA, BDCA2-his coated at 0.1 ug/mL, anti-human Fc HRP

EC50 [4]: 0.0835 µg/mL
EC50 (human BDCA2-Fc protein): 0.0201 µg/mL
B1: 23C10A6B5 (antibody, V domains shown)
VH: QVQLQQPGADLVKPGASVMMSCKASGYTFTSYIIHWVKQTPGQGLEWIGTIYPGNGDTSYNQKFKGKATLTADKSSSTAYMQLSSLTSEDSAVYYCARMGDNEYFDYWGQGTTLTVSS
VL: DIQMTQSPASLSASVGETVTITCRASGNIHNYLAWYQQKQGKSPQLLVYDAETLADGVPSRFSGSGSGTQYSLNINSLQPEDFGSFYCQHFWSTPYTFGGGTKLEIK
notes: Murine monoclonal antibody from hybridoma; also called hybridoma clone 23C10A6B5

binding result (human BDCA2-his protein [5]): binds
B4: 230-N55G (antibody, V domains shown)
VH: QVQLVQSGAEVKKPGASVKVSCKASGYTFTSYIIHWVRQAPGQGLEWMGTIYPGGGDTSYNQKFKGRVTMTRDTSTSTVYMELSSLRSEDTAVYYCARMGDNEYFDYWGQGTLVTVSS
VL: DIQMTQSPSSLSASVGDRVTITCRASGNIHNYLAWYQQKPGKAPKLLLYDAETLADGVPSRFSGSGSGTDYTLTISSLQPEDFATYYCQHFWSTPYTFGGGTKVEIK
notes: Single-point mutant of humanized antibody 230 (human IgG1/kappa)

binding result (human BDCA2-his protein [5]): binds
B5: 230IL-DI (antibody, V domains shown)
VH: B4 VH with I33L, G55N
VL: B4 VL with D56I
notes: Linked to the constant region of the IgG1 subtype

binding result (human BDCA2-his protein [5]): binds
B6: 230IL-NR-DI (antibody, V domains shown)
VH: B4 VH with I33L, G55R
VL: B4 VL with D56I
notes: as for B5

binding result (human BDCA2-his protein [5]): binds
B9: 230NR-DE (antibody, V domains shown)
VH: B4 VH with G55R
VL: B4 VL with D56E
notes: as for B5

binding result (human BDCA2-his protein [5]): binds
B12: 230IL-NR-DE (antibody, V domains shown)
VH: B4 VH with I33L, G55R
VL: B4 VL with D56E
notes: as for B5

binding result (human BDCA2-his protein [5]): binds
B13: 230IL-DE (antibody, V domains shown)
VH: B4 VH with I33L, G55N
VL: B4 VL with D56E
notes: as for B5

binding result (human BDCA2-his protein [5]): binds
B14: 230IL-NG-DI (antibody, V domains shown)
VH: B4 VH with I33L
VL: B4 VL with D56I
notes: as for B5

binding result (human BDCA2-his protein [5]): binds
B17: 230NG-DI (antibody, V domains shown)
VH: B4 VH
VL: B4 VL with D56I
notes: as for B5

binding result (human BDCA2-his protein [5]): binds
B19: antibody 230 mutant with light chain CDR2 DAETLAD changed to DAETLAE (antibody, V domains shown)
VH: B4 VH with G55N
VL: B4 VL with D56E
notes: Single-point mutant of humanized antibody 230; also called 230 antibody-DE

The remaining lines, values behind:

Molecule: positive control antibody Litifilimab (BIIB059, 24F4A)
EC50 [1]: 0.103 µg/mL
EC50 (human BDCA2-Fc protein): 0.0346 µg/mL
EC50 (human BDCA2-Fc protein; record 2): 0.0463 µg/mL
EC50 [2]: 0.124 µg/mL
Kd (human BDCA2-his protein [3]): 0.087 nM
koff (human BDCA2-his protein [3]): 0.000121 s⁻¹
kon (human BDCA2-his protein [3]): 1.39e+06 M⁻¹ s⁻¹

B2: humanized antibody 230 (antibody, V domains shown)
VH: B4 VH with G55N
VL: B4 VL
notes: Human IgG1 constant region and human kappa chain constant region; also called 230 antibody; parental monoclonal antibody 230
Kd (human BDCA2-his protein [3]): 0.0768 nM
koff (human BDCA2-his protein [3]): 0.00131 s⁻¹
kon (human BDCA2-his protein [3]): 1.7e+07 M⁻¹ s⁻¹

B3: antibody 237011 (antibody, human IgG1, V domains shown)
VH: B4 VH with I33L
VL: B4 VL with D56E
Kd (human BDCA2-his protein [3]): 0.0259 nM
koff (human BDCA2-his protein [3]): 0.000652 s⁻¹
kon (human BDCA2-his protein [3]): 2.52e+07 M⁻¹ s⁻¹

B7: 230-I33L (antibody, V domains shown)
VH: B4 VH with I33L, G55N
VL: B4 VL
notes: as for B4
binding result (human BDCA2-his protein [5]): binds

B8: 230-N55S (antibody, V domains shown)
VH: B4 VH with G55S
VL: B4 VL
notes: as for B4
binding result (human BDCA2-his protein [5]): binds

B10: antibody 230 mutant with light chain CDR2 DAETLAD changed to DAETLAI (antibody, V domains shown)
VH: B4 VH with G55N
VL: B4 VL with D56I
notes: Single-point mutant of humanized antibody 230; also called 230 antibody-DI
binding result (human BDCA2-his protein [5]): binds

B11: 230-N55A (antibody, V domains shown)
VH: B4 VH with G55A
VL: B4 VL
notes: as for B4
binding result (human BDCA2-his protein [5]): binds

B15: 230-N55R (antibody, V domains shown)
VH: B4 VH with G55R
VL: B4 VL
notes: as for B4
binding result (human BDCA2-his protein [5]): binds

B16: antibody 2391 (antibody, human IgG1, V domains shown)
VH: B4 VH
VL: B4 VL with D56E
Kd (human BDCA2-his protein [3]): 0.0357 nM
koff (human BDCA2-his protein [3]): 0.000874 s⁻¹
kon (human BDCA2-his protein [3]): 2.44e+07 M⁻¹ s⁻¹

B18: 230NR-DI (antibody, V domains shown)
VH: B4 VH with G55R
VL: B4 VL with D56I
notes: as for B5
binding result (human BDCA2-his protein [5]): binds
